Test results: publication PMC10647171

Columns and labels:
Experiment in all cases: potentiometry
[1] = molecular target: His31 (position 31, TTGDCH-----); settings: 298 K, 0.1 M NaClO4, none (4 mM HClO4, 0.1 M NaClO4)
[2] = molecular target: Cys30 (position 30, STTGDCH----); settings: 298 K; 0.1 M NaClO4; none (4 mM HClO4, 0.1 M NaClO4); Zn(II)-bound mononuclear 1:1 complex
Glu10 (position 10, …) = settings: 298 K, 0.1 M NaClO4, none (4 mM HClO4, 0.1 M NaClO4)
[3] = molecular target: Cterm31 (position 31, TTGDCH-----); settings: 298 K; 0.1 M NaClO4; none (4 mM HClO4, 0.1 M NaClO4); free peptide, no metal, thiols reduced (argon atmosphere)
[4] = molecular target: Cterm31 (UniProt position 773, TTGDCH-----); settings: 298 K; 0.1 M NaClO4; none (4 mM HClO4, 0.1 M NaClO4); free peptide, no metal, thiols reduced (argon atmosphere)
[5] = molecular target: Asp29 (UniProt position 771, ASTTGDCH---); settings: 298 K; 0.1 M NaClO4; none (4 mM HClO4, 0.1 M NaClO4); free peptide, no metal, thiols reduced (argon atmosphere)
[6] = molecular target: Cys30 (UniProt position 772, STTGDCH----); settings: 298 K; 0.1 M NaClO4; none (4 mM HClO4, 0.1 M NaClO4); Zn(II)-bound mononuclear 1:1 complex
[7] = molecular target: His31 (UniProt position 773, TTGDCH-----); settings: 298 K, 0.1 M NaClO4, none (4 mM HClO4, 0.1 M NaClO4)
[8] = Fe(II)-bound mononuclear 1:1 complex, anaerobic
[9] = Mn(II)-bound mononuclear 1:1 complex
[10] = Zn(II)-bound mononuclear 1:1 complex
[11] = free peptide, no metal, thiols reduced (argon atmosphere)

Protein | pKa [1, 8] | pKa [1, 9] | pKa [1, 10] | pKa [1, 11] | pKa [2] | pKa (Glu10 (position 10, …); [8]) | pKa (Glu10 (position 10, …); [9]) | pKa (Glu10 (position 10, …); [11]) | pKa [3] | pKa [4] | pKa [5] | pKa [6] | pKa [7, 8] | pKa [7, 9] | pKa [7, 10] | pKa [7, 11]
RRARSRVDIELLATRKSVSSCCAASTTGDCH [FeoB C-terminal peptide P2 (Ac-RRARSRVDIELLATRKSVSSCCAASTTGDCH, FeoB 743-773) (Escherichia coli K12)] | 4.90 | 5.20 | 5.74 | 6.73 | 7.75 | 4.13 | 3.64 | 4.38 | 2.15 | – | – | – | – | – | – | –
CCAASTTGDCH [FeoB C-terminal peptide P1 (Ac-CCAASTTGDCH, FeoB 763-773) (Escherichia coli K12)] | – | – | – | – | – | – | – | – | – | 3.37 | 4.19 | 7.27 | 4.68 | 6.46 | 5.91 | 6.96
